Experimental findings from the supplement of paper PMC12042874 are described below.

± gives the uncertainty stated by the source.

A short description of this series: amyloid nucleation score (Sup35N fusion, yeast selection) (log enrichment); library NNK2; higher = more nucleation; inactive = no reads after selection. In short, it runs like this:
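Using DiMSum, nucleation scores were taken as the log enrichment of output over input reads, centred on the mode score of non-aggregating sequences. The input and output reads came from Illumina sequencing of plasmid inserts, with sequences under 100 input reads excluded. The yeast were psi-negative, expressed Sup35N fused to peptides of 20 random codons, were induced with 100 μM copper sulfate for 24 hours, and were grown 7 days at 30°C on medium lacking adenine and uracil.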
In turn, LCTTNSLF displayed an amyloid nucleation score of -0.671 ± 0.38.

Substance FCKFMSCESRPCNIMKCWGV yielded an amyloid nucleation score of 0.276 ± 0.6.

PVGWSNRFRTMLPDS gave an amyloid nucleation score of 0.861 ± 0.48.

Consider VCDVLYKFGYSKN, for which the amyloid nucleation score was 4.89 ± 0.058.

With YNYASYLVHIALLFLSYIRR, the amyloid nucleation score came to 0.236 ± 1.1.

In the case of MELCYVILWYYIFSCGWWRS, the amyloid nucleation score result is “inactive”.

TGFGTSMFSKLYVNVNYL had an amyloid nucleation score of 5.37 ± 0.072.

As to SRYFVVAGRSLNTCVNMCCV, the amyloid nucleation score amounted to 4.78 ± 0.069.

On to RGKYAITCVMLWK, for which the amyloid nucleation score was 5.769 ± 0.054.

For SMRTG, the amyloid nucleation score amounted to 0.448 ± 0.23.

VTLIRSSRVATSCHGGTLFC showed an amyloid nucleation score of 3.45 ± 0.092.

For the substance YDNMC, the amyloid nucleation score was -0.72 ± 0.35.

IKGVRQHLTTYKGTL registered an amyloid nucleation score of -0.408 ± 0.49.

On to CFSLRVENSVRRTTTHPCLD, for which the amyloid nucleation score came to 3.87 ± 0.075.

VHCCFGACGCSSWRLNLLAS registered an amyloid nucleation score of 0.092 ± 0.49.

Take PGILRTFVETEYCITI: the amyloid nucleation score entry was “inactive”.

For the substance PFYTYSKYKCTKFTDNYYAQ, the amyloid nucleation score is -1.02 ± 1.1.

Consider IVDGEKYDLVWMFEGHG, for which the amyloid nucleation score is -0.536 ± 0.39.

On to VLNEDVRGKANTVVSSMG, for which the amyloid nucleation score worked out at 0.413 ± 0.24.

As for SLYCF, the amyloid nucleation score entry was “inactive”.

AIWYFFIRNYYPSLLQKRSL: the amyloid nucleation score was determined as 1.89 ± 0.12.

With CVKRRWPEVIRVHVGGYSFN, the amyloid nucleation score was found to be 0.455 ± 0.5.

RECIYFRFYSRWATLSFLNR returned an amyloid nucleation score of -0.368 ± 1.

In turn, KFRCHGR yielded an amyloid nucleation score of 0.785 ± 0.62.

Consider MTVLV, for which the amyloid nucleation score was determined as 1.12 ± 0.26.

Substance SFLIFRDVSFAGEGL gave an amyloid nucleation score of -1.21 ± 1.1.

In turn, PHRKV displayed an amyloid nucleation score of -0.536 ± 0.76.

The substance TRDAVGVLTLSSTLTTCSTC gave an amyloid nucleation score of -0.26 ± 0.35.

VYNWGGRLKP: the amyloid nucleation score was 0.147 ± 0.49.

For the substance KSVGVQALMLAKGIYFSING, the amyloid nucleation score was 1.53 ± 0.28.

The substance CNKTLLFIFPVLGQQDGDFG gave an amyloid nucleation score of 4.417 ± 0.044.

As to NSHRKNHFIGGWDFTCEIYN, the amyloid nucleation score entry is “inactive”.

HSHPCDREFLPRMHAWLDSS: the amyloid nucleation score was -0.135 ± 0.33.

Substance LNYRCAWWMLATMMLKRLSC displayed an amyloid nucleation score of 2.15 ± 0.31.

In turn, CYSYWPRSPFIWY had an amyloid nucleation score of -0.978 ± 1.1.

PVMDNLFSKAFVG displayed an amyloid nucleation score of -0.741 ± 0.5.

In the case of LNNSIYHLGKY, the amyloid nucleation score result is “inactive”.

With KVSYMFLVTLSYGSWFPSSM, the amyloid nucleation score was -0.545 ± 0.45.

Turning to SSEIKRSWGYFLSLLWFYYR, the amyloid nucleation score was -0.696 ± 1.

In turn, VRAYLQYR showed an amyloid nucleation score of 0.094 ± 0.74.

As for WCFFRVAFNW, the amyloid nucleation score came to 1.88 ± 0.17.

For the substance SLGIQRARNAMSNTPFALGS, the amyloid nucleation score was determined as 0.596 ± 0.36.

Consider RLQRVLS, for which the amyloid nucleation score is -0.458 ± 0.42.

IICMEVIFSLANCADWRTAV came in with an amyloid nucleation score of 3.53 ± 0.12.

SNWNTTPVSPS gave an amyloid nucleation score of 0.514 ± 0.44.

Take ASQIDSLVRNRNCLNSTKIG: the amyloid nucleation score was -0.23 ± 0.44.

DQKAIVMVRNLDAWVGCAHY: the amyloid nucleation score was 0.266 ± 0.46.

KWRDRNDINNFRQGLLCSVN: the amyloid nucleation score stood at 3.03 ± 0.14.

YSSYYHNFFRW came in with an amyloid nucleation score of -0.277 ± 0.28.

In turn, CLYLACIEGWLP came in with an amyloid nucleation score of 3.24 ± 0.056.

In the case of VLSLSVDFSCKRSCIMDTQV, the amyloid nucleation score turned out to be 3.95 ± 0.087.

As for QLVLKVRLWVDGLYVLEWGW, the amyloid nucleation score is -0.042 ± 0.49.

The substance DSSSVGGVLPVCVNSKSMED had an amyloid nucleation score of -0.236 ± 0.41.

In turn, TELKEGLYAGIHFNTGTG returned an amyloid nucleation score of -0.457 ± 0.64.

As to CDFLLLKLFRNVLVWLVCSG, the amyloid nucleation score entry was “inactive”.

As to APRRVSERFGSIVWVRRNS, the amyloid nucleation score was -0.547 ± 0.55.

On to ENELSPRGCRGEPLA, for which the amyloid nucleation score turned out to be 0.536 ± 0.62.

Turning to NSKTDSVHYYIDVLSPTHIF, the amyloid nucleation score is -1.09 ± 0.78.

SNCFHLVW: the amyloid nucleation score was -0.031 ± 1.

In the case of IYNLWYGISPSVMGGLGFLR, the amyloid nucleation score was 3.82 ± 0.062.

LILTCPCMCRFYVWGSTQYR had an amyloid nucleation score of -0.313 ± 0.39.

For LCRIDRVWQLGYRWLYQDVV, the amyloid nucleation score amounted to 4.34 ± 0.084.

QQCLINVSSRLLAGVNACSM came in with an amyloid nucleation score of 1.22 ± 0.34.

For the substance DVYVVIPNYGPQEWVSNYS, the amyloid nucleation score was -0.341 ± 0.5.

Consider VHTAFRETLYRRDKMLCGMR, for which the amyloid nucleation score is -0.709 ± 0.63.

As to NPIGFFHDLGVWIWWSSMAT, the amyloid nucleation score was -1.26 ± 1.1.

Regarding SRNSLLRS, the amyloid nucleation score is -0.924 ± 0.45.

As to FISSMGRVW, the amyloid nucleation score is -1 ± 0.55.

Consider LICGARYINFSGKGNY, for which the amyloid nucleation score is 0.023 ± 0.29.

In turn, AGKSTHLFLRAVVLLCGNPR had an amyloid nucleation score of 0.05 ± 0.35.

Regarding CAVEVM, the amyloid nucleation score was -0.724 ± 0.64.

As for RSKLNIDV, the amyloid nucleation score came to 1.95 ± 0.14.

Substance GPLRNEASGIWKKPGQCMTD had an amyloid nucleation score of -0.813 ± 0.76.

Turning to VLPTEYSGFFSTRQLPSLDS, the amyloid nucleation score turned out to be 0.137 ± 0.79.

As to SITFFKNAFVAIHIAR, the amyloid nucleation score entry was “inactive”.

Regarding GWVMVVPFPCMIVVVSAVGS, the amyloid nucleation score was -0.152 ± 0.4.

As to FYSFLINVPQCPER, the amyloid nucleation score worked out at 0.636 ± 0.81.

The substance GSVREQNFISRASLYAHGLS displayed an amyloid nucleation score of -0.095 ± 0.29.

For FFGLFFNFLLMLINLPKCIV, the amyloid nucleation score was -1.78 ± 0.75.

Substance NCLVISFKLWHNLMTVGYGD showed an amyloid nucleation score of 3.66 ± 0.079.

The substance VSDRLTMFKSVRSVWMCWGQ displayed an amyloid nucleation score of -0.146 ± 0.61.

Substance CVVRFRGPYKFCWPQDRSYS had an amyloid nucleation score of 0.247 ± 0.8.

The substance ILCFGFITTNSIRLQSPMVV registered an amyloid nucleation score of 0.753 ± 0.51.

The substance TTDGNQAISVKLMTYLTRPL displayed an amyloid nucleation score of -0.187 ± 0.41.

Take SHINFYVLEFWTFRIGDVFV: the amyloid nucleation score result is “inactive”.

RYNLARSLLFHHNTCVFMSV came in with an amyloid nucleation score of -0.491 ± 0.53.

Turning to EENGCS, the amyloid nucleation score turned out to be 1.22 ± 0.24.

The substance HGGQEAVHLRRCGGYDMSKA returned an amyloid nucleation score of 0.451 ± 0.42.

On to FISNYLMPV, for which the amyloid nucleation score came out at 2.1 ± 0.12.

The substance YFRMNPKFVCTKYSNAEYLS registered an amyloid nucleation score of -0.427 ± 0.64.

As to NYGVFTSIHVCYDVINVVRV, the amyloid nucleation score was -0.661 ± 1.1.

In turn, WSFLYE had an amyloid nucleation score of -0.548 ± 0.33.

For the substance LARFSDMDKMKGSVGFWALK, the amyloid nucleation score is -0.014 ± 0.62.

Substance NVLLNQNIMVLPGPLYFSIT yielded an amyloid nucleation score of 6.129 ± 0.054.

Consider ICLFDY, for which the amyloid nucleation score was -2.02 ± 0.62.

As for YHLSELVMRREWSDWYNVCG, the amyloid nucleation score was 0.126 ± 0.43.

Substance LYSYDLTC had an amyloid nucleation score of 1.78 ± 0.13.

Consider HILMKN, for which the amyloid nucleation score is -0.013 ± 0.42.

As to LCARALLH, the amyloid nucleation score is 0.905 ± 0.32.

Substance LFTVLKTVWANNNTYDSKQK registered an amyloid nucleation score of -1.23 ± 0.78.

WNECVFGAPAFSRE displayed an amyloid nucleation score of 3.11 ± 0.15.

The substance SPKTYRRIIGIGQVAVRVCK gave an amyloid nucleation score of 0.673 ± 0.25.

Take QLYRCPFCHGGALSYYIRKV: the amyloid nucleation score result is “inactive”.

CEEFMKFFAGYQTHVLVFSR: the amyloid nucleation score result was “inactive”.

The substance NIGSVKN came in with an amyloid nucleation score of 0.098 ± 0.38.

Turning to FLRWRDKWHG, the amyloid nucleation score turned out to be 0.861 ± 0.29.

NPNELLLSSCFFHYLVKPWG: the amyloid nucleation score result is “inactive”.

The substance FWFIRTRAGDWCPSSSPRMF yielded an amyloid nucleation score of 0.149 ± 0.23.

MRRTPFCVWKHIYRM: the amyloid nucleation score came to 0.182 ± 1.1.

As to DLSDIDRCGRLVNRESILLR, the amyloid nucleation score is 1.45 ± 0.5.

Take LECNDA: the amyloid nucleation score was determined as 0.322 ± 0.51.

With HLTNLDFT, the amyloid nucleation score is -1.1 ± 0.44.

Substance VFSNWVNVVWS displayed an amyloid nucleation score of 5.172 ± 0.039.

In the case of FSPVSPSSGKAHGIGLVLLV, the amyloid nucleation score turned out to be 0.083 ± 0.41.

Substance YGFGRHKNGAAMPTMYFAMS came in with an amyloid nucleation score of -0.014 ± 0.41.

Substance TLFNMLDYSVVWYLFTSIHR displayed an amyloid nucleation score of -1.44 ± 1.1.

As for SHEFSRMLEEFWDHNNVRSH, the amyloid nucleation score is -1.1 ± 0.48.

For the substance TCYMVWSLYC, the amyloid nucleation score worked out at 3.93 ± 0.067.

With RIVGDLICDVSSSQISTSHT, the amyloid nucleation score was -0.291 ± 0.48.

On to VSVDGKLRFRPT, for which the amyloid nucleation score was 0.313 ± 0.45.

Substance KYVWSVEGKVAVAGVAMSCA displayed an amyloid nucleation score of 0.025 ± 1.1.

YCCFMSRHGSKWHYVNICIF: the amyloid nucleation score result was “inactive”.

As for TLIDYYFYYCYGKSVDKAGL, the amyloid nucleation score is -0.749 ± 0.45.

For FSGLSCY, the amyloid nucleation score result is “inactive”.

WKIQACVSYQQGAVRGVCVD yielded an amyloid nucleation score of 0.139 ± 0.34.

ARTWGAAIWFMGN gave an amyloid nucleation score of 4.09 ± 0.093.

As to IREGLFRVTIDYSSMLCSGR, the amyloid nucleation score is 3.01 ± 0.12.

With LLRTHTSYRL, the amyloid nucleation score was -0.836 ± 0.55.

As to STRVWWDSWMFWLNEK, the amyloid nucleation score is -0.607 ± 1.

SVKNR had an amyloid nucleation score of 3.51 ± 0.049.

On to YNLNCHLFSAWTFNYKIAFL, for which the amyloid nucleation score worked out at 5.958 ± 0.043.

With YLVFKYTRGMFLVLCTPIWV, the amyloid nucleation score was -1.17 ± 0.39.

As for CAMDCSSVQGGSTITKCHTM, the amyloid nucleation score is 0.218 ± 1.1.

The substance NCMPMEYNDGENAVMCGFNG came in with an amyloid nucleation score of 0.11 ± 0.27.

SMEAFYRGFFKTPWSY displayed an amyloid nucleation score of -0.2 ± 0.29.

With TSGQNESDA, the amyloid nucleation score is 0.578 ± 0.81.

Turning to VRTIF, the amyloid nucleation score entry was “inactive”.

As for GVNARQGSHDLVLRIVR, the amyloid nucleation score worked out at 7.39 ± 0.075.

In the case of YLYKCNM, the amyloid nucleation score entry was “inactive”.

The substance IFKSHIPW came in with an amyloid nucleation score of -1.22 ± 0.48.

TRADDL returned an amyloid nucleation score of 0.205 ± 0.4.

The substance NARGHVNV showed an amyloid nucleation score of 0.786 ± 0.44.
